Experimental data from patent US20250320281A1.

How the values were obtained:
Experiment in all cases: cell-based or functional assay
[1] = target: HIV-1 Env of isolate MGRM-D-002 (clade D pseudovirus) (HIV-1)
[2] = target: HIV-1 Env of pseudovirus MGRM-F1-004 (HIV-1)
[3] = target: HIV-1 Env of pseudovirus MGRM-Chronic-B-018 (HIV-1)
[4] = target: HIV-1 APV-6 envelope glycoprotein (Env) on pseudovirus (HIV-1)
[5] = target: HIV-1 envelope glycoprotein (Env) of isolate MGRM-A-011, clade A (HIV-1)
[6] = target: HIV-1 Env of pseudovirus MGRM-AG-005 (clade CRF_AG) (HIV-1)
[7] = target: HIV-1 Env of pseudovirus MGRM-Chronic-B-023 (HIV-1)
[8] = target: HIV-1 Env of isolate TRO.11 (Acute), clade B, on pseudovirus (HIV-1)
[9] = target: HIV-1 Env of pseudovirus MGRM-G-006 (clade G) (HIV-1)
[10] = target: HIV-1 Env of pseudovirus MGRM-G-013 (HIV-1, clade G isolate MGRM-G-013)
[11] = target: HIV-1 envelope glycoprotein (Env) of isolate 94KE105, listed under clade A (HIV-1)
[12] = target: HIV-1 Env of pseudovirus MGRM-F1-021 (HIV-1)
[13] = target: HIV-1 envelope glycoprotein (Env) of isolate 92UG037, clade A (HIV-1)
[14] = target: HIV-1 envelope glycoprotein (Env) of isolate MGRM-A-007, clade A (HIV-1)
[15] = target: HIV-1 Env of isolate MGRM-Chronic-B-012 (subtype B pseudovirus) (HIV-1)
[16] = target: HIV-1 Env of isolate 93TH305 (subtype B pseudovirus) (HIV-1)
[17] = target: HIV-1 Env of isolate MGRM-F1-017 (HIV-1)
[18] = target: HIV-1 MGRM-C-028 Env (pseudovirus, clade C) (HIV-1)
[19] = target: HIV-1 Env of isolate MGRM-Chronic-B-008 (subtype B pseudovirus) (HIV-1)
[20] = target: HIV-1 Env of isolate MGRM-F1-020 (HIV-1)
[21] = target: HIV-1 APV17 Env (pseudovirus, clade B) (HIV-1)
[22] = target: HIV-1 Env of isolate MGRM-D-003 (pseudovirus) (HIV-1)
[23] = target: HIV-1 94UG103 Env (pseudovirus, clade A) (HIV-1)
[24] = target: HIV-1 APV13 Env (pseudovirus) (HIV-1)
[25] = target: HIV-1 Env of isolate MGRM-D-022 (pseudovirus) (HIV-1)
[26] = target: HIV-1 Env of isolate MGRM-Chronic-B-018 (subtype B pseudovirus) (HIV-1)
[27] = target: HIV-1 Env of pseudovirus isolate MGRM-G-024 (HIV-1)
[28] = target: HIV-1 Env of isolate MGRM-AG-009 (HIV-1)
[29] = target: HIV-1 Env of isolate MGRM-AG-002 (HIV-1)
[30] = target: HIV-1 MGRM-AG-005 Env (pseudovirus) (HIV-1)
[31] = target: HIV-1 93UG077 Env (pseudovirus) (HIV-1)

Substance	IC50 (µg/ml), pseudovirus neutralization [1]	IC50 (µg/ml), pseudovirus neutralization [2]	IC50 (µg/ml), pseudovirus neutralization [3]	IC50, pseudovirus neutralization [4]	IC50 (µg/ml), pseudovirus neutralization [5]	IC50 [6]	IC50 (µg/ml), pseudovirus neutralization [7]	IC50 (µg/ml), pseudovirus neutralization [8]	IC50 [9]	IC50 (µg/ml), pseudovirus neutralization [10]	IC50 (µg/ml), pseudovirus neutralization [11]	IC50 (µg/ml), pseudovirus neutralization [12]	IC50 (µg/ml), pseudovirus neutralization [13]	IC50 (µg/ml), pseudovirus neutralization [14]	also measured
b12 (antibody)	> 50 µg/mL	> 50 µg/mL	0.66 µg/mL	> 25 µg/mL	4.01 µg/mL	> 50 µg/mL	> 50 µg/mL	> 50 µg/mL	> 50 µg/mL	> 50 µg/mL	> 50 µg/mL	> 50 µg/mL	> 50 µg/mL	> 50 µg/mL	
2F5 (antibody)	24.6 µg/mL	4.31 µg/mL	10.8 µg/mL	0.1 µg/mL	> 50 µg/mL	> 50 µg/mL	0.1 µg/mL	> 50 µg/mL	1.33 µg/mL	0.59 µg/mL	> 50 µg/mL	1.37 µg/mL	3.24 µg/mL	16.3 µg/mL	
4877_D15 (PGT-122) (antibody)															IC50 (µg/mL), pseudovirus neutralization [15]: 0.066 µg/mL; IC50 (µg/mL), pseudovirus neutralization [16]: 0.013 µg/mL; IC50 (µg/mL), pseudovirus neutralization [17]: > 50 µg/mL; IC50 neutralization [18]: 2.06 µg/mL; IC50 (µg/mL), pseudovirus neutralization [19]: 0.017 µg/mL; IC50 (µg/mL), pseudovirus neutralization [20]: 0.321 µg/mL; IC50 neutralization [21]: 0.522 µg/mL; IC50, pseudovirus neutralization [22]: > 50 µg/mL; IC50 neutralization [23]: 1.46 µg/mL; neutralization IC50 (pseudovirus) [24]: 0.992 µg/mL; IC50, pseudovirus neutralization [25]: > 50 µg/mL; IC50 (µg/mL), pseudovirus neutralization [26]: > 50 µg/mL; IC50 (µg/mL), pseudovirus neutralization [27]: 0.033 µg/mL; IC50 [28]: 0.128 µg/mL; IC50 [29]: > 50 µg/mL; neutralization IC50 (pseudovirus) [30]: > 10 µg/mL; neutralization IC50 (pseudovirus) [31]: 0.191 µg/mL
4E10 (antibody)	9.44 µg/mL	2.74 µg/mL	23.2 µg/mL	0.4 µg/mL	2.88 µg/mL	2.13 µg/mL	27.9 µg/mL	1.39 µg/mL	1.23 µg/mL	1.15 µg/mL	7.63 µg/mL	1.87 µg/mL	8.84 µg/mL	1.82 µg/mL	
1495_C14 (PGC14) (antibody)	29 µg/mL	> 50 µg/mL	> 50 µg/mL	7.41 µg/mL	> 50 µg/mL	> 50 µg/mL	> 50 µg/mL	> 50 µg/mL	> 50 µg/mL	> 50 µg/mL	> 50 µg/mL	46 µg/mL	> 50 µg/mL	> 50 µg/mL	
